Test results published in patent US20050136055A1.

Legend:
[1] = target: Fc receptors (FcR) on human leukocytes (human); assay: 125I-labelled IgG1 control on human leukocytes, 4 C
[2] = target: Fc receptors (FcR) on cynomolgus leukocytes (cynomolgus); assay: 125I-labelled IgG1 control on cynomolgus leukocytes, 4 C

Question: How did the specific binding as % of the total bound radioactivity [1] turn out when human IgG1 control mAb (antibody) was run?
Answer: 56%

Question: What about the specific binding as % of the total bound radioactivity [2] of the same substance?
Answer: 51%
